Results from the RNAGym collection of RNA variant scans (doi:10.1073/pnas.2313332121).
This sample holds only a part of the variants without activity.

B1: TPR 5TU (parent)
chain: GGAUCUUCUCGAUCUAACAAAAAAGACAAAUCUGCCACAAAGCUUGAGAGCAUCUUCGGAUGCAGAGGCGGCAGCCUUCGGUGGCGCGAUAGCGCCAACGUUCUCAACUAUGACACGCAAAACGCGUGCUCCGUUGAAUGGAGUUUAUCAUG

Variants of: B1
Experiment: polymerase ribozyme fitness, log enrichment relative to wild type (log ratio); higher = more active; in vitro selection for triplet polymerase activity
Summary of the method: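 To select mutant libraries of each subunit of a heterodimeric triplet polymerase ribozyme, built by PCR and transcribed, each was annealed with a biotinylated primer, partner subunit and triplets, then incubated frozen at −7 °C. Extended constructs were gel-excised, captured on streptavidin beads and amplified by RT-PCR, in one round carried out in triplicate. Illumina sequencing of input and output libraries kept genotypes with ≥10 input reads and ≥1 read per output. Fitness is the base-2 logarithm of genotype enrichment relative to wild-type enrichment, from inverse-variance-weighted replicate averages.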

Row | Variant | polymerase ribozyme fitness (log ratio)
1 | A40U A91U U102A U104C U139A | ≤ -4.2
2 | A39G U53A G58C C72G C95G C103G | ≤ -4.2
3 | A40C C93A C99U G133C | -3.98
4 | A40C U44G C63U C95U C103G A115G A142C | ≤ -4.2
5 | A39G G58U G59C G124C G136A | ≤ -4.2
6 | A40G C85A G133C G136A | -3.86
7 | A40U C54A A110G A120U | -4.07
8 | A40C G141A | 0.793
9 | A40C U55A G59C C69U G84A | -2.39
10 | A40U A91G | -3.33
11 | A39U G84C | -3.33
12 | A40C U82G G94A | 0.746
13 | A40G G59A C93A | -4.07
14 | A40C U55A A89C | 0.0362
15 | A40U C57A G86A A110U C125A G141U | ≤ -4.2
16 | A40U A91C A120C C129A U151A | ≤ -4.2
17 | A40C C69G G80A | -0.716
18 | A39U C51U C54U A60G U82G A98C | -3.88
19 | A40G G48U G58U C76A | ≤ -4.2
20 | A39G U56G G58C C79U U102A U127G | ≤ -4.2
21 | A39U G86U C114U A120U G140A | ≤ -4.2

Row | Variant | polymerase ribozyme fitness (log ratio)
22 | A40C U55A G88A C108G C118U U130A | ≤ -4.2
23 | A39U U101C U144G | -2.52
24 | A40C G100U U102G U135A | ≤ -4.2
25 | A40C C54U G141U | 0.7
26 | A40G C54U C76U A91C C95G G143U | ≤ -4.2
27 | A39G G83A U101A | ≤ -4.2
28 | A40C U53A | 0.24
29 | A39U C51U U61G A89U | ≤ -4.2
30 | A39U C54U U61A C93U A106U | ≤ -4.2
31 | A40C A49C C54A C96U C114U G126A | ≤ -4.2
32 | A39U G74A C85U A91C C125A | ≤ -4.2
33 | A39U G58C G88A | ≤ -4.2
34 | A39U A40U A91U C95G | ≤ -4.2
35 | A40C C51U C57A G94U C114G A150G | ≤ -4.2
36 | A40C U45A G50A A73U G92A | ≤ -4.2
37 | A39U C43U U111G | ≤ -4.2
38 | A39U C95U C96A G124A | -3.2
39 | A40C U82C G94U | -0.916
40 | A40U A98G | -0.242
41 | A39G U55A G71A G92C C96U C131U C149A | ≤ -4.2
42 | A40G C43G A64C | ≤ -4.2

Row | Variant | polymerase ribozyme fitness (log ratio)
43 | A40G G86A C95U C103G C108U C125G | ≤ -4.2
44 | A39U C76G G92U C108U | ≤ -4.2
45 | A39U A66C G68A C108U A121U U134A G143U | ≤ -4.2
46 | A39U A47U C96U A122G G124A | -3.16
47 | A39U G46C G48A G50C U56A G84U | ≤ -4.2
48 | A40C C57A U139C | -3.43
49 | A40C U56A A89G | -0.978
50 | A40C C125A | -0.0259
51 | A40C A113U C118U G136A | -2.68
52 | A39U A73U | -4.11
53 | A40U A106G | 0.3
54 | A39U G59C G83U A147U | -2.17
55 | A40G G58C C79G C87U G136U | ≤ -4.2
56 | A40G C93U A106G C118U | -3.47
57 | A40C G42U U55A C85A | ≤ -4.2
58 | A40U C51U G83C | -0.981
59 | A40C G62U A119U | -0.408
60 | A40C G94U C129G U139A G141U U146C | ≤ -4.2
61 | A40U C54U A97U C99U | -2.64
62 | A40C A52C G86A A98G | -2.37
63 | A40C C54A A89U G94U | -2.57

Row | Variant | polymerase ribozyme fitness (log ratio)
64 | A39G G50C C51G G58A C93G U139G | ≤ -4.2
65 | A40C G48C U56G | -1.94
66 | A40G U53A A73U C103G | ≤ -4.2
67 | A40C C85U C95U A98G G126U | -1.37
68 | A39U C72A G83A A137U | ≤ -4.2
69 | A39U U56A C93U | -3.55
70 | A39G G58U U82C C108A U146A A150C | ≤ -4.2
71 | A40C G86A G141C A147C | ≤ -4.2
72 | A40C A89G A150G | -3.25
73 | A40U C51U C93U | -1.15
74 | A40G A41C A52G G71U A107G U111G U139C U146G C149A U151G | ≤ -4.2
75 | A40C C57U A60G U61A | -2.29
76 | A39U C96G | -2.11
77 | A39U C96A | -2.81
78 | A39U A41C G80C G84U A142C C149A | ≤ -4.2
79 | A40C C54U U56A G126U | -0.0276
80 | A40G C85U | -2.16
81 | A40C A52U U55A C93U | -3.92
82 | A39G G80C C93U C118U | -3.96
83 | A39U C93A C105G A113U C114G | ≤ -4.2
84 | A40U C57G | 0.32
